Measurements from the nanobody polyreactivity screen of Harvey et al. (2022).

Test: yeast display, Sf9 membrane polyspecificity reagent, FACS + sequencing; frameworks hold sequencing errors
In short: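 After 36–48 hours of galactose induction, yeast (Saccharomyces cerevisiae BJ5465) displaying a synthetic nanobody library were stained at 4 °C for 1 hour with 10% biotinylated, detergent-solubilized Sf9 membrane reagent. Streptavidin microbeads enriched the stained cells before FACS sorting into low and high (top ~1%) gates on anti-HA and streptavidin fluorescence. Each clone's polyreactivity label reflects its gate of origin.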

Sequence	polyreactivity (PSR sort gate)
QVQLVESGGGLVQARGSLRLSCAASGITFRVNAMGWYRPAPGKERELVAAISRGGGSTYYADSVKGRFTISRDNAKNTVYLQMNSLKPEDTAVYFCAASYGAPYGYKRYYYWGQGTQVTVSS	high polyreactivity
QVQLVESGGGLVQARGSLRLSCAASGLIFKYNVMGWYRQAPGTERELVAAITWGGTRTYYADSVKGRFTISRDNAKNTVYLQMNSLKPEDTAVYYCARSHWTWLLIYIGAQDYDYWGQGTQVTVSS	low polyreactivity
QVQLVESGGGLVQARGSLRLSCAASGNTIIRYAMGWYRQAPGKERELVAAISYAGGRTYYADSVKGRFTISRDNAKNTVYLQMNSLTPEDTAVYYCNAASRYGGDYWGQGTQVTVSS	high polyreactivity
QVQLVESGGGLVQARGSLRLSCAASGRIFGNNAKGWYRQAPGKARELVAAIRRGGSTYYADSVKGRFTISRDNAKITVYLQMNSLKPEETAVYYCAADSSRKHFYWGQGTQVTVSS	high polyreactivity
QVQLVESGGGLVQARGSLRLSCAASGRIFSYNDMGWYRQAPGTERELVAVISIRGGGTYYADSVKGRFTISRDNAKNTVYFQMNSLKPEDTAVYYCNAEYVTFGEEYGYWGQGTQVTVSS	low polyreactivity
QVQLVESGGGLVQARGSLRLSCAASGRTFRYYTMGWYRQAPGKEREFVAAITFRGGSTYYADSVKGRFTISRDNAKNTVYLQMNSLKPEDTAVYYCAAVGRYSRYPYSDTYGYWGQGTQVTVSS	high polyreactivity
QVQLVESGGGLVQARGSLRLSCAASGRTLTYNAMGWYRPAPGKERELVAVISSRGDTTYYADSVKGRFTISRDNAKNTVYLQRNSLKPEDTAVYFCNSALSGRRSYYYWGQGTQVTVSS	low polyreactivity
QVQLVESGGGLVQARGSLRLSCAASGSIFRYNAMGWYRQAPGKERELVAAITSAGGSTYYADSVKGRFTISRDKAKNTVYLQMNSLKPEDTAVYYCAVRYYVYFPWPRVTERMYYWGQGTQVTVSS	high polyreactivity
QVQLVESGGGLVQARGSLRLSCAASGSIFYNYGMGWYRQAPGKERELVAAIRASGDSTYYADSVKGRFTISRDNAKNTVYLQMNSLKPEDTAVYYCAARPNQSYYGLYYYWGQGTQVTVSS	low polyreactivity
QVQLVESGGGLVQARGSLRLSCAASGSIIDYYAMGWYRQAPGKERELVAAINISGGDTYYADSVKGRFTISRDNAKNTVYLQMNSLKPEDTAVYYCNADRFYIDYSNTYDSIRDYWGQGTQVSVSS	low polyreactivity
QVQLVESGGGLVQARGSLRLSCAASGSTFPYYTMGWYRQAHWKERELVAAITTRGGGTYYADSVKGRFTISRDNAKNTVYLKMNSLKPEDTAVYYCAAKTIYDTRGIRHYYWGKGTQVTVSS	high polyreactivity
QVQLVESGGGLVQARGSLRLSCAASGSTFTRYGMGWYRQAPGKERELVAAITTSGSSTYYADSVKGRFTISRDNAKNTVYLQMNSLKPEDTAVYYCAADWSSWGFDYWGQGTQVTLSS	low polyreactivity
QVQLVESGGGLVQARGSLRLSCAASGYIFFGNAMGWYRQAPGKERELVAAIRWRGTSTYYADSVKGRFTISRDNAKNTVYLQMKSLKPEDTAVYYCAADVVSSNFYGTFLYDYDYWGQGTQVTVSS	low polyreactivity
QVQLVESGGGLVQARGSLRLSCAASLLTFGKNDMGWYRQAPGKEREFVAAITSRGGYTYYADSVKGRFTISRDNAKNTVYSQMNSLKPEDTAVYYCNREYKRPSQRTEHSYWGQGTQVTVSS	low polyreactivity
QVQLVESGGGLVQARGSLRLSCASSGSIFNYYDMGWYRQAPGKERELVAAIDTSGGSTYFADSVKGRFTISRDNAKNTVYLQMNRLKPEDTAVYYCAAEWPYYDKIYDYWGQGTQVTVSS	low polyreactivity
QVQLVESGGGLVQARGSLRLSCASSGSIFRFNGMGWYRQPPGKERELVATISSGGRTNYADSVKGRFTISRDNAKNTVYLQMNSLKPEDTAVYYCAARSPLRTSYYYPYYYWGQGTQVTVSS	high polyreactivity
QVQLVESGGGLVQARGSLRLSFAASGYTLRPNGMGWYRQAPGKERELVAAISSGGSTYYADSVKGRFTISRDNAKNTVYLQLNSLKPEDTAVSYCAAEYWYDYWVQGTQVTVSS	low polyreactivity
QVQLVESGGGLVQARGTRRLSSAACGRTFGSYAMGWYRQAPGKERELVAAISRSDGSTYYADSVKGRFSISRDNEKNTVYFQMNSLKPEDTAVYYCAAKRWYVSYDYDYWGQGTQVTVSS	high polyreactivity
QVQLVESGGGLVQARRRLRLSCAASGRTFRENFMGWYRQEPGKEREFVAISSSGASTYYADSVKGRFTISRDNAKNTVYLQMNSLKPEDTAVYYCAAKLYGAPYSKYYYWGHGTQVTVSS	high polyreactivity
QVQLVESGGGLVQASGSLRLSCAASGLTFYLNAMGWYRPEHGKERELVAGISYTGGSTYYADSVKGRFTISRDNAKNTVYLQMNSLKPEDTAVYSCARDNFYYGVWDYGYWGQGTQVTVSS	low polyreactivity
QVQLVESGGGLVQAVGRLRLSCAASGLTFQYYAMGWYRQAPGKERELDAAISRSGGRSYYADSVKGRFTISRDNAKYTVYLQMISLKPEDSAVSYCNAVRRFASPTRHYYWGQGTQVTVSS	high polyreactivity
QVQLVESGGGLVQAVGSHRLSCAASGSIFFWYTMGWYRQPPGKERELVATITGSGSSTTYADSVKGRFTISRDNAKNTVYLQMNSLKPVDTAVYYCAAADIIDHSFPYDYWGQGTQVTVSS	low polyreactivity

Sequence	polyreactivity (PSR sort gate)
QVQLVESGGGLVQAVGSLRLICAPSGSIFGTNAMGWYRQAPGKERELVATISYGDGSTYYADSVKGRFTISRDNAKNTVYLQMNSLKPEDTAVYYCNTGVYSSGGPLDYWGQGTQVTVSS	low polyreactivity
QVQLVESGGGLVQAVGSLRLSCAASGFTFRGYDMRSYRQAPGKQRELVAGITWGDDSTYYADSVKRRFTISRDKAKNTGYLQMNILKPEDTAVYYCAAEYVFHDVLWWIYGYWRQGTQVTVSS	high polyreactivity
QVQLVESGGGLVQAVGSLRLSCAASGRIFVYNAMGWYRQAPGKERELVASITSSGGSTYYADSVKGRFTISRDNAKNTFYLQMNSLKPEDTAVYYCAADVQPDTRSTPEMDYWGQGTQVTVSS	low polyreactivity
QVQLVESGGGLVQAVGSLRLSCAASGRTFDEYAMGWYRQAPGKERELVAAISTRGGSTYYADSVKGRFTISRDNAKNTVYLQMNSLKPEDTAVYYCAADYTKSSSPWPGYYWGQGTQVTVSS	high polyreactivity
QVQLVESGGGLVQAVGSLRLSCAASGRTLSRNAKGWYRQAPGKEREFVAAISSRGTSTYYADSVKGRFTISRDNAKNSVYLQMNSLKPEDTAVYYCATTLGGNYGYDYWGQGTQVTVSS	high polyreactivity
QVQLVESGGGLVQAVGSLRLSCAASGSIFVKYAMGWYRQAPGKERELVAALSRSGGSTYYADSVKGRFTISRDNAKNTVYLQMNSLKPEDTEVYYCAATYYKGMNYWGQGTQVTVSS	high polyreactivity
QVQLVESGGGLVQAVGSLRLSCAASGSTFGEYAMGWYRQAPGKERELVAVITSDDNTYYADSVKGRFTISRDNAKNTVYLQMNSLKPEDTAVYYCATDDRRRFKYWGQGTQVTVSS	high polyreactivity
QVQLVESGGGLVQAVGSLRLSCAASGSTFGRNAMGWYRQAPGKERELVAAISWSASRTYYADSVKGRFTISRDNAKNTVYLQMNSLKPEDTAVYFCAAEYDVGYFGYEYWGQGTQVTVSS	high polyreactivity
QVQLVESGGGLVQAVGSLRLSCAASGSTFKRNAMGWYRQAPGKERELVAAITSGGSTYYADSVKGRFTISRDNAKNTVYLQMNSLKPEVTAVYYCNKVPYLKLKMDYWGQGTQVTVSS	high polyreactivity
QVQLVESGGGLVQAVGSLRLSCAASGSTFSRYAMGWYRQAPGKERELVAAISWGGNTYYADSVKGRFTISRDNAKNTVYLQMNSLKPVDTAVYYCNRYSKLYNTMDYWGQGTQVTVSS	high polyreactivity
QVQLVESGGGLVQAVRSLRLSCAASGFTFNGNAMGWYRQAPGKDRELVAAISYSGGSTYYADSVKGRFTISRDNAKNTVYLQMNSLKPEDTAVYYCAADRTAYSVRAYTKDHSGHDYWGQGTQVTVSS	low polyreactivity
QVQLVESGGGLVQEGASLRLSCAASGSIVGYYAMGWYRQAHGKERELVAAITRYGGRTYYADSVKGRFTISRDNGKNTVYLQMNSLKPEDTAVYYCNAANSRYAYYYWGQGTQVTVSS	high polyreactivity
QVQLVESGGGLVQEGGCLRLSSAASGSIFKSNAMGWYRQAPGKERELVATISRIGGSTYYADSVKGRFTISRDNAKNTVYLQMNCLKPEDTAVYYFAARRYLYTVGYGPRRGLVYWGQGTQVTVSS	high polyreactivity
QVQLVESGGGLVQEGGSHSLSCAASGRTFKYKAMGWSRPAPGKERELVASISGSGGRTYYADSVKGRFTISRDIAKNSVFLQMYRLNPEDTAVYFCNATRVKWLDWGQGTQVTVSS	high polyreactivity
QVQLVESGGGLVQEGGSIRLSCAASGSTFFLYAMGWYRQAPGKERELVAAITYTDGDTYYADSVKGRFTISRDNAKNTVYLQMNSLKPEDNAVYYCNAGGDEPVYGSGYDYWGQGTQVTVSS	low polyreactivity
QVQLVESGGGLVQEGGSLRLICAASGNTSPFYSMGWYRQAPGKERELVAAISANGGSTTYADSVKGRFTISRDNAKNTVYLQMNSLKTEVTAVYYCNTYYWYSGSPYVYWGQGTQVTVSS	low polyreactivity
QVQLVESGGGLVQEGGSLRLICAASGRILRDNAMGWYRQAPGKERELVAAISVSTVSTYYADSVKGLFTISRDNANNTVYFHMNSLKPEDTAVYYCNADATDSYPEKDEHDSWGQGTQVTVSS	low polyreactivity
QVQLVESGGGLVQEGGSLRLICAASGRTLYHYVMGWYSQAPGKERELVAAISSGGSTYYADSVKGRFTISRDNAKNTVYLQMNSLKPEDTAVYFCAAGRRGDWGQGTQVTVSS	high polyreactivity
QVQLVESGGGLVQEGGSLRLRCAASGSIFYRYAMGWYRQAPGKERELVAAISSTGSTYYADSVKGRFTISRDNAKNTVYLQMNSLKPEDTAVYYCAARQGYRSYRRYDYWGQGTQVTVSS	high polyreactivity
QVQLVESGGGLVQEGGSLRLSCAACGFTFTTNAMGWYRQAPGKERELVAGITFIGGSTYYADSVKGRFTISRDNAKNTVYLQMNNLKPEDTAVYYCAAEWVLVYLQYTYEDYDYWGQGTQVTVSS	low polyreactivity
QVQLVESGGGLVQEGGSLRLSCAASGFIFFLNAMGWYRQAPGKERELVAAISSSGGRTYYADSVKGRFTISRDNAKITVYLQMNSLKTEVTAVYYCNAVTLYRSRTDGYWGQGTQVTVSS	high polyreactivity
